Assay results reported in patent US20130157932A1, “NGAL AND URINARY TRACT INFECTION” (The Trustees of Columbia University in the City of New York, priority 2010, published 2013).
Entries after “also recorded” stand apart in the source; their conditions may differ.

Columns and labels:
[1] = test system: UPEC iron acquisition genes; experiment: Real time PCR of UPEC iron acquisition genes; assay type: cell-based, Escherichia coli
Source text: To determine whether NGAL-Scn induced bacterial iron starvation, we measured a series of iron acquisition systems (9, 10) that are regulated by iron load via fur, including catecholates enterochelin (ent genes) and salmochelin (iro genes), the hydroxamate aerobactin (iuc genes) (11, 12), their receptors, fepA, iroN (13-15), and iutA, respectively, and additionally the heme scavenging chu receptors (15). […] In sum, uNGAL-Scn is expressed within hours of the onset of infection in vivo, and it is required to limit bacterial growth during the early phases of acute cystitis, most likely by blocking iron acquisition.
Total RNA was isolated with the mirVANA (for eukaryotic cells) or ribopure (for bacteria) RNA extraction kits (Ambion). First strand cDNA was synthesized with Superscript III (Invitrogen). Real-time PCR was performed in a 7500 Fast (Applied Biosystems) with a SYBR green supermix reagent (Fisher) and primers (Table 2) using β-actin (eukaryotic cells) and gapA (for bacteria) as internal controls. Fold amplification of transcripts was measured by the […] method.

[2] = test system: uropathogenic Escherichia coli strain (CFT073); experiment: In vitro growth of UPEC CFT073 in M9 minimal medium or urine; assay type: cell-based; details: for bacterial growth after addition of FeCl3 to NGAL: M9 with NGAL 5 μM plus FeCl3 1 mM; for bacterial growth (optical density): M9 minimal medium; for growth of UPEC (OD600) in urine: human urine pH 5.8 (<pH 6.0), NGAL-Scn 5 μM
Source text: To investigate the relationship between NGAL and UPEC a pyelonephritogenic clinical isolate of uropathogenic Escherichia coli, CFT073, was aliquoted in 96 well plates containing M9 minimal medium supplemented with MgCl2 and glucose (see green hashed line: FIG. 1a), and bacterial growth was monitored by spectrophotometry.
Next, we tested whether NGAL-Scn was sufficient to inhibit urinary bacterial growth. We used UPECs grown to log phase in an iron restricted minimal media (M9), and then subsequently transferred the bacteria into urine or M9. Growth in human urine (<pH 6.0) was similar to growth in acidified M9 (<pH 6.0; FIG. 8C, D).
A single colony of CFT073 was selected from a plate and grown in M9 to log phase. Bacteria were pelleted and resuspended in either M9 or urine and monitored in a 96 well plate on a Tecan 200 Promicroplate reader for up to 72 h.

[3] = test system: Ngal expression in the kidney; experiment: Kidney Ngal expression (QPCR) after lipid A/LPS in reciprocal kidney cross-transplants; assay type: in vivo, mouse; details: 1 mg/kg, vs untreated cross transplant, n=3
Method: To determine whether uNGAL originated from the kidney in a TLR-dependent fashion, kidney transplantation between Tlr-4-mutant CH3/HeJ mice and wild type CH3/HeOuJ mice was performed. To evaluate the contribution of TLR signaling to NGAL expression a cross-transplant model using TLR mutants and systemic administration of LPS as a positive control was used. The CH3/HeJ kidneys from the LPS-insensitive mice were transplanted into CH3/HeOuJ LPS-sensitive (control) mouse bodies, and vice versa. Two weeks after graft maturation, when uNGAL and sCr had stabilized to normal values, a low dose of lipid A (1 mg/kg of body weight) was administered to induce Ngal expression in the kidney (FIG. 4a). […] It is not surprising that there was some Ngal induction in the knockout (KO) kidney because CH3/HeJ are partial KOs and it has also been previously shown that lipid A can signal through the MyD88-dependent pathway without a functioning Tlr4. […]
To identify elements of the pathway that detect UPEC, we evaluated whether IC could respond to a low dose of LPS (i.p. 1 mg kg^−1), a TLR4 agonist. […]
Surgical cross-transplants (1, 44) were monitored for two weeks until serum creatinine stabilized to 0.2 mg dL^−1 and uNGAL-Scn was undetectable prior to ip challenge with LPS (1 mg kg^−1).

explanted bladders = experiment: NGAL-Scn secretion by bladders explanted from LPS treated mice; assay type: in vivo, mouse
Method: FIGS. 17A-B. C57/BL6 mice challenged with i.p. LPS (1 mg kg^−1) were explanted and media collected at 12 h and 24 hr of culture. FIG. 17A. […] FIG. 17B. NGAL-Scn was detected by Western blot.
Because both the bladder and kidney might contribute to uNGAL-Scn expression, we performed in situ hybridization 1 d post-TU challenge with UPEC (20-30 μl of 5×10^8 CFU ml^−1 i.e. ˜1×10^7 total CFU). We found Ngal-Scn message in collecting duct epithelia (FIG. 8H) (1) and in a thin luminal layer of bladder epithelia (FIG. 8I), but the majority of Ngal-Scn transcripts were found in the kidney (FIG. 8J). Moreover, in a controlled experiment, bladders explanted from mice treated with LPS (1 mg kg^−1) secreted approximately 10 ng per bladder over 12 h (FIG. 17), a small percentage of even a single collection of urine (250 ng ul^−1) from the treated mouse. In sum, while many types of genitourinary epithelia can express uNGAL-Scn in response to cystitis, the kidney was a dominant source of NGAL-Scn, even though kidney bacteria fell at, or below, our limit of detection (10^2 CFU kidney^−1; FIG. 18), and an inoculum less than 50 μl is not likely to generate gross vesico-ureteral reflux (VUR) (24).

NGAL-Scn expression = NGAL-Scn expression in mice after i.p. LPS; assay type: in vivo, mouse
Method: To identify elements of the pathway that detect UPEC, we evaluated whether IC could respond to a low dose of LPS (i.p. 1 mg kg^−1), a TLR4 agonist. […] To assess the role of TLR4 further, we inoculated LPS-responsive C3H/HeN (Lps“) and C3H/HeOuJ (Lps”) mice and LPS-defective C3H/HeJ (Lps^d) mice by TU with […] of 5×10^8 CFU ml^−1 (n=15). […] To confirm that kidney expressed TLR4 was critical, we cross-transplanted Lps^d kidneys into nephrectomized Lps^n controls and vice versa. […] Concurrently, TLR4 modulates the burden of urinary infection, by regulating the expression of NGAL-Scn in kidney epithelia.

[4] = test system: Primary Ngal-Luciferase2/mCherry medullary cells; experiment: NGAL-Luc2 expression in primary Ngal-Luciferase2/mCherry kidney cells co-cultured with UPEC; assay type: cell-based, mouse; details: co-culture with UPEC 3 h; antibiotic added at the time of UPEC; n=3
Method: […] Alternatively, primary cells were treated with Lipid A and in some cases with NF-kB inhibitors, MG132 (Cayman Chemical), and Analogues 27, 30, and 3121 and Analogue 3022. The Luciferase substrate (Dual-Glo™ Luciferase Assay System; Promega) was added and luminescence from Luc2 and fluorescence from mC (excitation of 500-550 nm and emission of 575-650 nm) were imaged in a Xenogen IVIS optical imaging system.
Luc2/mC di-fusion reporter mice (8-12 weeks of age) were perfused with PBS and kidney cells were isolated with collagenase (2 mg ml^−1; Sigma), and cultured (1×10^5 well^−1 in 24-well plates; Falcon) in DMEM/F12 medium supplemented with 10% FBS, 1% penicillin-streptomycin, and 46 mg/l L-Valine for 24 h. […] Luciferase substrate (Dual-Glo Luciferase Assay System; Promega) was added and luminescence from Luc2 and fluorescence from mC (excitation 500-550 nm and emission 575-650 nm) were imaged in a Xenogen IVIS optical imaging system.

Enterochelin:Fe [5] = experiment: Enterochelin:Fe capture by NGAL-Scn; assay type: binding; details: 3:1 Enterochelin:Fe::Ngal-Scn ratio; washed 5 times on 10 k filter
Method: . IPTG (0.2 mM final concentration) was added for 5 h. Bacterial pellets were lysed by sonication in lysis buffer, followed by Triton-X 100 (0.5%) treatment for 30 min on ice. Supernatant was collected after high speed centrifugation and filter sterilized (0.45 μm). NGAL-Scn-GST was purified by binding to Glutathione Sepharose beads followed by cleavage of the GST tag with thrombin. Released protein was fractionated by a Sephacryl S100HR column. Enterochelin:Fe capture by NGAL-Scn was tested (Emc Microcollections gmbh) at a 3:1 Enterochelin:Fe::Ngal-Scn ratio.

Enterochelin:Fe [6] = details: pH 4.0; cited from earlier work
[7] = M9 with iron added to match urinary concentration (806 nM)

CC(=O)N(O)CCCCCNC(=O)CCC(=O)N(O)CCCCCNC(=O)CCC(=O)N(O)CCCCCN [DFO, reference compound]
UPEC iron acquisition gene expression with DFO ([1]; M9 media, DFO 50 μM or 5 μM, n=5): modulated

[Cl][Fe]([Cl])[Cl] [FeCl3, reference compound]
bacterial growth after addition of FeCl3 to NGAL [2]: rescued | bacterial growth after addition of FeCl3 to NGAL ([2]; listed as iron): reversed

Lipid A [LPS]
increase in Ngal expression, Tlr-4-mutant (Lps^d) kidney in wild type (Lps^n) host [3]: 4.5±2.6 fold | increase in Ngal expression, wild type (Lps^n) kidney in Tlr-4-mutant (Lps^d) host [3]: 15.6±2.3 fold | NGAL-Scn upregulation in bladder explant media at 12 h (explanted bladders; C57/BL6, i.p. LPS 1 mg kg^−1, 12 h of culture, vs control, n=10): 2 fold | NGAL-Scn upregulation in bladder explant media at 24 h (explanted bladders; C57/BL6, i.p. LPS 1 mg kg^−1, 24 h of culture, vs control, n=10): 5 fold | NGAL-Scn secreted by explanted bladder (explanted bladders; LPS 1 mg kg^−1, over 12 h): approximately 10 ng per bladder | NGAL-Scn in a single collection of urine from the treated mouse (NGAL-Scn expression; LPS 1 mg kg^−1): 250 ng/µL | NGAL-Scn expression in intercalated cells / kidney medulla (NGAL-Scn expression; i.p. LPS 1 mg kg^−1, in situ hybridization): induced NGAL-Scn expression; also recorded: detected in alternating cells

gentamicin
NGAL-Luc2 expression in response to UPEC [4]: blunted

B1: Neutrophil Gelatinase Associated Lipocalin (NGAL)-Siderocalin (Scn) (protein, UniProt P11672 21-200, looked up)
Neutrophil …: QDSTQNLIPAPSLLTVPLQPDFRSDQFRGRWYVVGLAGNAVQKKTEGSFTMYSTIYELQENNSYNVTSILVRDQDQGCRYWIRTFVPSSRAGQFTLGNMHRYPQVQSYNVQVATTDYNQFAMVFFRKTSENKQYFKITLYGRTKELSPELKERFTRFAKSLGLKDDNIIFSVPTDQCIDN
modifications: recombinant, E. coli
notes: Recombinant mouse NGAL-Scn protein produced in BL21 E. coli
bacterial growth (optical density) ([2]; NGAL 5 μM): greatly inhibited | bacterial growth (optical density) ([2]; NGAL 5 μM, listed as mouse (m) NGAL): significantly inhibited | bacterial growth (optical density) ([2]; NGAL 5 μM, listed as uNGAL): inhibit growth | growth of UPEC in M9 at pH 5.8 ([2]; M9 pH 5.8 (typical urine pH), NGAL 5 μM, n=3): robust inhibition | growth of UPEC in M9 at pH 7 ([2]; M9 pH 7, NGAL 5 μM, n=3): reduced (and variable) growth inhibition | growth of UPEC (OD600) in urine ([2]; n=3): greatly inhibited | growth of UPEC (OD600) in urine ([2]; n=3, listed as uNGAL-Scn): inhibited the growth | EntF activation [1, 7]: 2410 fold | iucD activation [1, 7]: 16970 fold | iutA activation [1, 7]: 1.9 fold | chuS upregulation ([1]; UPEC in M9, NGAL-Scn 5 μM): 26.9 fold | entA upregulation ([1]; UPEC in M9, NGAL-Scn 5 μM): 396.2 fold | entF upregulation ([1]; UPEC in M9, NGAL-Scn 5 μM): 36294.5 fold | fepA upregulation ([1]; UPEC in M9, NGAL-Scn 5 μM): 18.0 fold | iroN upregulation ([1]; UPEC in M9, NGAL-Scn 5 μM): 207 fold | iucA upregulation ([1]; UPEC in M9, NGAL-Scn 5 μM): 12568.5 fold | iucD upregulation ([1]; UPEC in M9, NGAL-Scn 5 μM): 19.0 fold | iutA upregulation ([1]; UPEC in M9, NGAL-Scn 5 μM): 13.4 fold | entA, entF, and iha gene expression ([1]; UPEC in M9, NGAL-Scn 5 μM for 30 min, n=5): upregulation | Enterochelin:Fe binding by coloration (Enterochelin:Fe [5]): binding detected | enterochelin binding at low pH (Enterochelin:Fe [6]): binds enterochelin even at pH 4.0
